Results as given in the supplement of paper PMC6757056.
± gives the standard deviation of the averaged measurements.

B1: library; a variant is named by its letters at N, in order (parent)
chain: GCUGUCACCGAGAAACUGUGAAGUAUAUCUUAAACCUGGGCACUUAAAAGAUAUAUGGAGUUAGUAGUGCAACCUGCUCGGUCUGAUGAGUCCNNNNNNGGACGAAACAGC

What was measured:
cyclic di-GMP [1] = variants of: B1; assay: FACS-Seq fitted mean relative fluorescence mCherry/BFP without ligand (log10 relative fluorescence); HEK293T; ligand: cyclic di-GMP (c-di-GMP-II aptamer); higher = higher reporter protein expression; settings: ligand present: no
Summary of the method: (§1)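 Fluorescence comes from a normal fit to bin counts, normalized against controls. HEK293T libraries lentivirally given a ribozyme-switch mCherry reporter and an EF1α-BFP marker were enriched, incubated 48 h with or without ligand, and sorted by mCherry/BFP into 6 bins. Bin genomic DNA was PCR-amplified, barcoded and sequenced on MiSeq. The log10(mCherry/BFP) mean was scaled to five spiked-in control ribozymes.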

cyclic di-GMP [2] = variants of: B1; assay: normalized RNA/DNA level without ligand (relative to sTRSVctl = 100) (log10 (% of sTRSVctl)); HEK293T; ligand: cyclic di-GMP (c-di-GMP-II aptamer); higher = less ribozyme self-cleavage, higher mRNA level; settings: reporter: mCherry (pCS4076), ligand present: no
Summary of the method: (§2)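 Ribozyme switch library plasmids linked to reporters were introduced into HEK293T cells at 4 µg per 6-well well, with ligand, if any, added 1 h before. Total RNA was extracted with EDTA 72 h later, reverse-transcribed, amplified, barcoded and sequenced. RNA level was computed from RNA over DNA reads relative to a spiked-in non-cleaving sequence or the top sequences, then scaled and log-transformed. The top set was 25 sequences, values were ×100 and log10, and the cutoff was ≥100 DNA reads.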

cyclic di-GMP [3] = variants of: B1; assay: FACS-Seq fitted mean relative fluorescence mCherry/BFP with ligand (log10 relative fluorescence); HEK293T; ligand: cyclic di-GMP (c-di-GMP-II aptamer); ligand concentration (+) FACS-Seq: 1 mM; higher = higher reporter protein expression; settings: ligand present: yes
Summary of the method: as §1

cyclic di-GMP [4] = variants of: B1; assay: normalized RNA/DNA level with ligand (relative to sTRSVctl = 100) (log10 (% of sTRSVctl)); HEK293T; ligand: cyclic di-GMP (c-di-GMP-II aptamer); ligand concentration (+) RNA-Seq: 1 mM; higher = less ribozyme self-cleavage, higher mRNA level; settings: reporter: mCherry (pCS4076), ligand present: yes
Summary of the method: as §2

Variant	FACS-Seq fitted mean (log10) (cyclic di-GMP [1])	normalized RNA/DNA level without ligand (log10) (cyclic di-GMP [2])	FACS-Seq fitted mean (log10) (cyclic di-GMP [3])	normalized RNA/DNA level with ligand (log10) (cyclic di-GMP [4])
CUUUCC	0.0673 ± 0.015	1.82 ± 0.038	0.163 ± 0.01	1.93 ± 0.11
AUUGCC	-0.0783 ± 0.14	1.776 ± 0.0015	0.207 ± 0.0046	1.92 ± 0.12
AAAAGU		1.52 ± 0.071		1.71 ± 0.057
GAAAUC		1.659 ± 0.012		1.81 ± 0.11
CAAGCA		1.63 ± 0.035		1.76 ± 0.11
CAAGCU		1.67 ± 0.021		1.83 ± 0.071
CAAGCG		1.74 ± 0.052		1.85 ± 0.11
CAAGCC		1.76 ± 0.022		1.85 ± 0.087
GUUCGU	-0.35 ± 0.027	1.66 ± 0.01	0.0521 ± 0.011	1.8 ± 0.074
GUUCGA	-0.345 ± 0.023	1.6 ± 0.018	0.045 ± 0.055	1.75 ± 0.12
GAACAA		1.55 ± 0.03		1.7 ± 0.14
GAACAC		1.641 ± 0.014		1.78 ± 0.1
GAACAU		1.64 ± 0.033		1.78 ± 0.097
CAAGUC		1.7 ± 0.055		1.78 ± 0.14
CAAGUG		1.68 ± 0.045		1.84 ± 0.12
GAAGAC		1.563 ± 0.0055		1.76 ± 0.12
GAAGAG		1.5 ± 0.14		1.71 ± 0.094
AAAUGG		1.5 ± 0.092		1.68 ± 0.076
CUUUAA	-0.402 ± 0.005	1.32 ± 0.094	-0.039 ± 0.028	1.54 ± 0.087
AUUGGA	-0.489 ± 0.028	1.45 ± 0.099	-0.102 ± 0.071	1.62 ± 0.1
AUUGGU	-0.24 ± 0.092	1.58 ± 0.052	0.0192 ± 0.053	1.78 ± 0.14
UAAUGG		1.676 ± 0.013		1.81 ± 0.087
UAAUGU		1.652 ± 0.0062		1.78 ± 0.087
AUUGUA	-0.397 ± 0.017	1.56 ± 0.031	0.0499 ± 0.075	1.71 ± 0.097
UAAUUG		1.71 ± 0.04		1.83 ± 0.13
UAAUUC		1.73 ± 0.021		1.84 ± 0.099

Variant	FACS-Seq fitted mean (log10) (cyclic di-GMP [1])	normalized RNA/DNA level without ligand (log10) (cyclic di-GMP [2])	FACS-Seq fitted mean (log10) (cyclic di-GMP [3])	normalized RNA/DNA level with ligand (log10) (cyclic di-GMP [4])
UAAUUA		1.7 ± 0.018		1.85 ± 0.062
AAAUCG		1.54 ± 0.12		1.73 ± 0.061
AAAUCC		1.71 ± 0.049		1.83 ± 0.091
AAAUCA		1.595 ± 0.0024		1.77 ± 0.098
AAAUCU		1.7 ± 0.026		1.82 ± 0.13
UAAGUC		1.663 ± 0.0049		1.8 ± 0.11
CAAUAC		1.592 ± 0.015		1.73 ± 0.13
CAAUAG		1.73 ± 0.024		1.83 ± 0.14
UAACAC		1.68 ± 0.035		1.83 ± 0.13
UAACAU		1.62 ± 0.019		1.76 ± 0.08
UAACAA		1.7 ± 0.034		1.83 ± 0.16
UAACAG		1.68 ± 0.02		1.86 ± 0.098
GAAUAU		1.59 ± 0.039		1.79 ± 0.077
GAAUAC		1.62 ± 0.026		1.78 ± 0.095
AAAUUA		1.54 ± 0.04		1.75 ± 0.11
AAAUUU		1.67 ± 0.067		1.82 ± 0.17
AAAUUC		1.6899 ± 0.00096		1.85 ± 0.11
GAACCG		1.7241 ± 0.00012		1.81 ± 0.1
GAACCU		1.69 ± 0.033		1.86 ± 0.08
GAACCA		1.677 ± 0.0078		1.8 ± 0.13
GAAGUC		1.59 ± 0.021		1.74 ± 0.038
GAAGUG		1.732 ± 0.0044		1.81 ± 0.095
GAAGUA		1.64 ± 0.021		1.76 ± 0.061
GAAAAC		1.59 ± 0.016		1.74 ± 0.063
UACAAA		1.65 ± 0.041		1.8 ± 0.057
UACAAU		1.64 ± 0.017		1.77 ± 0.13

Variant	FACS-Seq fitted mean (log10) (cyclic di-GMP [1])	normalized RNA/DNA level without ligand (log10) (cyclic di-GMP [2])	FACS-Seq fitted mean (log10) (cyclic di-GMP [3])	normalized RNA/DNA level with ligand (log10) (cyclic di-GMP [4])
UACAAG		1.69 ± 0.02		1.8 ± 0.12
AAAGGC		1.6 ± 0.044		1.77 ± 0.14
AUUUAA	-0.437 ± 0.065	1.58 ± 0.074	-0.0871 ± 0.058	1.75 ± 0.078
CUUGAA	-0.585 ± 0.066	1.35 ± 0.11	-0.291 ± 0.046	1.55 ± 0.086
CUUGAC	-0.287 ± 0.2	1.69 ± 0.024	0.101 ± 0.066	1.83 ± 0.085
AAAACC		1.68 ± 0.014		1.81 ± 0.083
AAAACA		1.51 ± 0.072		1.7 ± 0.074
AAAACU		1.669 ± 0.0017		1.79 ± 0.086
GAAUUA		1.55 ± 0.026		1.74 ± 0.097
GAAUUU		1.652 ± 0.015		1.85 ± 0.12
GAAUUC		1.8 ± 0.021		1.92 ± 0.09
GAAUCG		1.67 ± 0.041		1.8 ± 0.096
GAAUCC		1.75 ± 0.058		1.86 ± 0.076
GAAUCA		1.638 ± 0.0066		1.82 ± 0.1
GAAUCU		1.698 ± 0.0076		1.82 ± 0.12
GAAGCC		1.78 ± 0.034		1.89 ± 0.12
GAAGCU		1.715 ± 0.017		1.83 ± 0.11
UUUCUU	0.255 ± 0.19	1.773 ± 0.014	0.428 ± 0.021	1.89 ± 0.066
UUUCUA	-0.278 ± 0.011	1.75 ± 0.065	-0.016 ± 0.035	1.88 ± 0.11
UUUCGA	0.0382 ± 0.21	1.82 ± 0.041	0.251 ± 0.061	1.89 ± 0.079
UUUUCG	-0.162 ± 0.14	1.78 ± 0.035	0.00347 ± 0.15	1.9 ± 0.12
GUUUGG	-0.428 ± 0.018	1.62 ± 0.068	-0.249 ± 0.089	1.8 ± 0.13
GUUUGC	-0.138 ± 0.079	1.66 ± 0.043	0.164 ± 0.012	1.79 ± 0.15
GUUUGA	-0.499 ± 0.039	1.56 ± 0.086	-0.212 ± 0.018	1.71 ± 0.042
GAACUG		1.66 ± 0.059		1.75 ± 0.089
GAACUC		1.725 ± 0.004		1.85 ± 0.1

Variant	FACS-Seq fitted mean (log10) (cyclic di-GMP [1])	normalized RNA/DNA level without ligand (log10) (cyclic di-GMP [2])	FACS-Seq fitted mean (log10) (cyclic di-GMP [3])	normalized RNA/DNA level with ligand (log10) (cyclic di-GMP [4])
GAACUU		1.68 ± 0.051		1.83 ± 0.096
CAAGAU		1.6 ± 0.048		1.79 ± 0.086
CAAGAC		1.64 ± 0.06		1.8 ± 0.082
CAAGAG		1.6 ± 0.023		1.78 ± 0.14
UAAAAU		1.615 ± 0.00033		1.79 ± 0.099
UAAAAC		1.697 ± 0.003		1.8 ± 0.1
UAAAAA		1.65 ± 0.048		1.78 ± 0.12
AAACGC		1.67 ± 0.027		1.85 ± 0.082
AAACGU		1.47 ± 0.095		1.62 ± 0.18
AAACGA		1.39 ± 0.15		1.57 ± 0.097
GAAAGC		1.59 ± 0.029		1.72 ± 0.068
GAAAGG		1.56 ± 0.041		1.72 ± 0.12
AACAAA		1.45 ± 0.11		1.65 ± 0.079
AACAAC		1.542 ± 0.01		1.75 ± 0.11
UUUGUU	-0.123 ± 0.13	1.73 ± 0.063	0.125 ± 0.064	1.86 ± 0.13
UUUGUA	-0.5429 ± 0.0021	1.708 ± 0.002	-0.268 ± 0.088	1.85 ± 0.13
CUUCUA	-0.605 ± 0.032	1.44 ± 0.072	-0.312 ± 0.059	1.67 ± 0.075
CAACAG		1.6987 ± 0.0016		1.85 ± 0.13
CAACAC		1.58 ± 0.028		1.77 ± 0.12
CAAGGU		1.64 ± 0.037		1.8 ± 0.1
CAAGGG		1.6 ± 0.063		1.8 ± 0.072
CAAGGC		1.705 ± 0.0097		1.82 ± 0.12
CAAGGA		1.46 ± 0.077		1.64 ± 0.064
